Source: US6017743A, “Siaα 2,3, Galβ 1, 4Glc NAcα 2,8-sialyltransferase” (The Institute of Physical and Chemical Research, priority 1995, dated 2000)

Key:
[1] = molecular target: T1, mouse Siaα 2,3Galβ 1,4GlcNAc α 2,8-sialyltransferase O3 (ST8Sia III), protein A-fused soluble enzyme, SEQ. ID. No.3 (active domain of SEQ. ID. No.1) (Mus musculus, UniProt Q64689); assay: Kinetic properties of the sialyltransferase of the present invention (sialyltransfer from CMP-[14C]NeuAc to glycolipid acceptors, HPTLC/radio image analysis); assay type: biochemical; settings: acceptor substrate, Table 2
T1 construct: ID; No.3 and 4, respectively; IgM signal peptide (N); made in house; host or cells: COS-7 cells (transient transfection with pcDSA-O3; secreted into the medium, adsorbed to IgG-Sepharose)
T1 sequence (Q64689 42-380): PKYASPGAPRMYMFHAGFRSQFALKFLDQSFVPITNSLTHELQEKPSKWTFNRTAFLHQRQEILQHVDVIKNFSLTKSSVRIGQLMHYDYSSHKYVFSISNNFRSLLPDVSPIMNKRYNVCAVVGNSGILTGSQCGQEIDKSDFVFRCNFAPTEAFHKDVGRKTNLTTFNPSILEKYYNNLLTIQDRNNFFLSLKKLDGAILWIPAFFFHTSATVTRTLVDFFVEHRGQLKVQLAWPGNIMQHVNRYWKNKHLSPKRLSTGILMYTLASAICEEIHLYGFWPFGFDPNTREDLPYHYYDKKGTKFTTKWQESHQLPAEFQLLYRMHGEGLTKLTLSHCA
Source text: To facilitate functional analysis of the sialyltransferase of the present invention, expression plasmid pcDSA-O3 was constructed and transfected into COS-7 cells, and the protein A fused-protein containing an active domein of the sialyltransferase of the present invention (i.e. a soluble enzyme; hereinafter referred to as the fused protein of the present invention) was adsorbed to IgG-Sepharose in the medium and used as the enzyme source. The amino acid sequence of the fused protein and the gene encoding the fused protein are shown as SEQ. ID. No.3 and 4, respectively.
A truncated form of the sialyltransferase of the present invention (ST8Sia-III), lacking the first 39 amino acids of the open reading frame, was prepared by PCR amplification with 5'- and 3'-primers containing a XhoI site, respectively (5'-CATCTTCTCGAGTCCC AAGTACGCCAGCCCG-3' and 5'-[…]-3'). […]
The single insertion in the correct orientation was finally analyzed by restriction enzyme treatment and DNA sequencing. […]
For glycolipid acceptors, the incubation mixtures were applied on a C-18 column (Sep-Pak Vac, 100 mg; Waters, Milford, Mass., U.S.A.) which was washed with water. […] The radioactive materials in glycoproteins or glycolipids were visualized with a BAS2000 radio image analyzer (Fuji Film, Japan), and the radioactivity incorporated into acceptor glycoproteins was counted.

[2] = molecular target: bovine submaxillary mucin (bovine)
[3] = molecular target: asialo-α1-acid glycoprotein
fetuin [4] = molecular target: fetuin
[5] = molecular target: transferrin (bovine) (bovine) (UniProt Q29443)
fetuin [6] = molecular target: fetuin; remark: listed apart in the source

| Km ([1]; 0.1 M sodium cacodylate pH 6.0, 37° C., CMP-[14C]NeuAc donor) [µM] | Vmax [1] | sialyltransferase activity toward the acceptor (pmol/ml medium, h) (pmol/ml medium, h) [2] | sialyltransferase activity toward the acceptor (pmol/ml medium, h) (pmol/ml medium, h) [3] | sialyltransferase activity toward the acceptor (pmol/ml medium, h) (pmol/ml medium, h) (fetuin [4]) | sialyltransferase activity toward the acceptor (pmol/ml medium, h) (pmol/ml medium, h) [5] | sialyltransferase activity toward the acceptor (pmol/ml medium, h) (pmol/ml medium, h) (asialofetuin) | sialyltransferase activity toward the acceptor (pmol/ml medium, h) (pmol/ml medium, h) (ovomucoid) | sialyltransferase activity toward the acceptor (pmol/ml medium, h) (pmol/ml medium, h) (α1-acid glycoprotein) | Km (fetuin [6]) [µM] | Substance |
| --- | --- | --- | --- | --- | --- | --- | --- | --- | --- | --- |
| 82 | 9.2 pmol/h,ml |  |  |  |  |  |  |  |  | Siaα 2,3Galβ 1,4GlcNAc β 1,4Galβ 1,4Glcβ1,1Cer [2,3-SPG] |
|  |  | < 0.01 | < 0.01 | < 0.01 | < 0.01 | < 0.01 | < 0.01 | < 0.01 |  | human ST8Sia I (GD3 synthase) expressed by Namalwa cells (from UniProt Q92185) (enzyme) |
|  |  | < 0.1 | < 0.1 | 8 | 0.38 | < 0.1 | 1.3 | 7.6 |  | mouse ST8Sia II (STX) (from UniProt O35696) (enzyme) |
|  |  | < 0.1 | < 0.1 | 92.1 | 1.3 | < 0.1 | 1.7 | 7.8 | 20 | protein A-fused soluble enzyme containing an active domain of Siaα2,3Galβ1,4GlcNAc α2,8-sialyltransferase O3 (mouse ST8Sia-III) |
